Assay [1] addresses VP16 transcription activation domain fused to aa 133-239 of c-Fos, encoded by PMVP_Fos (human) (UniProt P01100). The assay is described as follows: cell-based or functional assay.
Assay [2] concerns the target VP16 activation domain alone, encoded by the empty prey vector PMVP (UniProt P06492). Description: cell-based or functional assay.
Assay [3] concerns the target T1, JZ domain of c-Jun fused with GFP, encoded by PMNGFP_JZ (human, UniProt P05412 249-331; P42212 1-238 = GFP).
T1 construct: Expressed in HEK293T cells; also called bait in the second screening
The assay is described as follows: in vivo binding screening: membrane localization of the GFP fusion in HEK293T cells, fluorescence microscopy.

Assay [4] addresses T2, JA domain (aa 1-223) of c-Jun fused with GFP, encoded by PMNGFP_JA (human, UniProt P05412 1-223; P42212 1-238 = GFP).
T2 construct: Expressed in HEK293T cells
The description is as above.

VP16 activation domain alone, encoded by the empty prey vector PMVP, sequence (P06492 411-456 limits assumed): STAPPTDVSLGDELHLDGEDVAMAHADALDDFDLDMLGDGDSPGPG

For the molecule “Gal4 DNA-binding domain alone, encoded by the empty bait vector PMBD (from UniProt P04386 1-147)”, the events with GFP 30-fold or more above the background (FACS) (event in 10000) in assay [1] was less than 1. In turn, “Gal4 DNA-binding domain fused to the JZ domain (aa 249-331) of c-Jun, encoded by PMBD_JZ (from UniProt P04386 1-147; P05412 249-331)” gave an events with GFP 30-fold or more above the background (FACS) (event in 10000) in assay [2] of less than 1.

B1: Fyn_JA: Fyn membrane-localizing signal fused to the JA domain of c-Jun (other, UniProt P06241 1-10, looked up)
chain: MGCVQCKDKEMTAKMETTFYDDALNASFLPSESGPYGYSNPKILKQSMTLNLADPVGSLKPHLRAKNSDLLTSPDVGLLKLASPELERLIIQSSNGHITTTPTPTQFLCPKNVTDEQEGFAEGFVRALAELHSQNTLPSVTSAAQPVNGAGMVAPAVASVAGGSGSGGFSASLHSEPPVYANLSNFNPGALSSGGGAPSYGAAGLAFPAQPQQQQQPPHHLPQQMPVQHPRLQ
modifications: myristoylation signal at the N-terminus (membrane-localizing signal)
notes: domain: myristoylation signal;range 1-223
In the case of B1, the binding result in assay [3] is given as “no binding”.

B2: Fyn_Fos peptide: Fyn myristoylation (membrane-localizing) signal fused to c-Fos aa 133-239, expressed from the 3-primer PCR product (other, UniProt P06241 1-10, looked up)
chain: MGCVQCKDKESPEEEEKRRIRRERNKMAAAKCRNRRRELTDTLQAETDQLEDEKSALQTEIANLLKEKEKLEFILAAHRPACKIPDDLGFPEEMSVASLDLTGGLPEVATPESEEAF
modifications: myristoylation signal at the N-terminus (membrane-localizing signal)
notes: domain: myristoylation signal;range 133-239; Expressed in HEK293T cells
On to B2, for which the binding result in assay [4] is listed as “no binding”.

(Values after patent US20030211523A1 (published 2003).)
